Source: US20200339959A1 (Memorial Sloan Kettering, published 2020)

Legend:
Flag-tagged human IRF3 = target: T1, Flag-tagged human IRF3 (human, UniProt Q14653 1-427); assay: co-immunoprecipitation from HEK293T lysates: IP anti-C7, blot anti-Flag
T1 construct: also called transcription factor IRF3; not shown: Flag tag
T1 sequence: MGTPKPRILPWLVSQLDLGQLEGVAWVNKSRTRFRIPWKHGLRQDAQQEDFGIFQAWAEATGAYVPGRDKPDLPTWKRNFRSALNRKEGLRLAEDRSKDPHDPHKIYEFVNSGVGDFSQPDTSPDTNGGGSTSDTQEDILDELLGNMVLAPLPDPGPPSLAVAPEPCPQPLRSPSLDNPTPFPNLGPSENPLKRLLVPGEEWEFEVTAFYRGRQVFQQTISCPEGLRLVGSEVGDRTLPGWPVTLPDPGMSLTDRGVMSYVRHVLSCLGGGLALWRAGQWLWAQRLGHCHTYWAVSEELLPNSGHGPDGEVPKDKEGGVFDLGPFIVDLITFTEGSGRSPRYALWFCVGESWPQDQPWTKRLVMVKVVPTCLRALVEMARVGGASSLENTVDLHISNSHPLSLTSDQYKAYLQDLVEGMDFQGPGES

Flag-tagged human STAT1 = target: T2, Flag-tagged human STAT1 (human, UniProt P42224 1-750); assay: co-immunoprecipitation from HEK293T lysates: IP anti-HA, blot anti-Flag
T2 construct: also called flag-STAT1; not shown: Flag tag
T2 sequence: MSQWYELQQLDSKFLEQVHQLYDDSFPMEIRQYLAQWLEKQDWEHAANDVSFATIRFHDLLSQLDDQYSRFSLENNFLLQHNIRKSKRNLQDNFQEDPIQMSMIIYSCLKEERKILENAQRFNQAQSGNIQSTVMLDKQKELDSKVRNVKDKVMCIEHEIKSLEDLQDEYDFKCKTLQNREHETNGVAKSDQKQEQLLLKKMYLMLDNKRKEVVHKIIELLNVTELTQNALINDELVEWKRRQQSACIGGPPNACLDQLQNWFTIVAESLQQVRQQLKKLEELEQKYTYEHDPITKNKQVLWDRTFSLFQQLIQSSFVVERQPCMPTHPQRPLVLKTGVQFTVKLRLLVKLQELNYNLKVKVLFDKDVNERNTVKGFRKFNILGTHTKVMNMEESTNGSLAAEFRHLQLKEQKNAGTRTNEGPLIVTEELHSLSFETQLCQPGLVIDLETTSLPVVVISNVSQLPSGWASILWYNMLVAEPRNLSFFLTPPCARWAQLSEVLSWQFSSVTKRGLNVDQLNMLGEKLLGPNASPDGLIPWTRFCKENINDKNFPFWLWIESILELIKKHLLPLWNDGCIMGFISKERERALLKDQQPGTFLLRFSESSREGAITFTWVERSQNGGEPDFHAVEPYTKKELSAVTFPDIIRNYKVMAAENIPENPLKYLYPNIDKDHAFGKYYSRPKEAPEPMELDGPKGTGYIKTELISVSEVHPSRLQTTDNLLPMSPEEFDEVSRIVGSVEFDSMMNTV

Flag-tagged human STAT2 = target: T3, Flag-tagged human STAT2 (human, UniProt P52630 1-851); assay: as above
T3 construct: also called flag-STAT2; not shown: Flag tag

B1: vaccinia virus C7 protein (other)
chain: MGIQHEFDIIINGDIALRNLQLHKGDNYGCKLKIISNDYKKLKFRFIIRPDWSEIDEVKGLTVFANNYAVKVNKVDDTFYYVIYEAVIHLYNKKTEILIYSDDENELFKHYYPYISLNMISKKYKVKEENYSSPYIEHPLIPYRDYESMD
notes: also called vaccinia C7; C7L gene product
B1: binds (Flag-tagged human IRF3).

B2: HA-tagged vaccinia C7 (other)
chain: B1 chain
notes: also called C7-HA; HA-tagged C7
B2: no binding (Flag-tagged human STAT1); binds (Flag-tagged human STAT2).
